Positions count from the first letter of the chain named. In names and notes the source's numbering stands.

To fix the notation:
B1: OPTN(1–119) E50K mutant (domain or fragment, human, UniProt Q96CV9 1-119, looked up)
chain: MSHQPLSCLTEKEDSPSESTGNGPPHLAHPNLDTFTPEELLQQMKELLTKNHQLKEAMKLNNQAMKGRFEELSAWTEKQKEERQFFEIQSKEAKERLMALSHENEKLKEELGKLKGKSE
notes: not shown: Trx-His6 (pET-32M) or GST (pET-GST), N-terminal, cleaved
B2: Trx-His-tagged TBK1 CTD (residues 677–729) (domain or fragment, human, UniProt Q9UHD2 677-729, looked up)
chain: YPSSNTLVEMTLGMKKLKEEMEGVVKELAENNHILERFGSLTMDGGLRNVDCL
notes: source: E. coli BL21 (DE3), purified (Ni-NTA, size-exclusion chromatography); not shown: Trx, N-terminal, kept; His6, N-terminal, kept
B3: TBK1 CTD (residues 677–729) (domain or fragment, human, UniProt Q9UHD2 677-729, looked up)
chain: B2 chain
notes: For the crystal with NAP1 TBD it was made as a NAP1(215–254)-TEV site-TBK1 CTD fusion that was cut with 3C and TEV; not shown: Trx-His6 (pET-32M) or GST (pET-GST), N-terminal, cleaved
B4: NAP1 TBD (residues 215–254) (domain or fragment, human, UniProt Q9H6S1 215-254, looked up)
chain: SSDNMQHAYWELKREMSNLHLVTQVQAELLRKLKTSTAIK
notes: For the crystal it was made as a NAP1(215–254)-TEV site-TBK1 CTD fusion that was cut with 3C and TEV; also called NAP1(215–254); not shown: Trx-His6 (pET-32M) or GST (pET-GST), N-terminal, cleaved
B5: TBK1 CTD(E696K) (domain or fragment, human, UniProt Q9UHD2 677-729, looked up)
chain: B2 chain with E20K
notes: also called TBK1 E696K mutant; not shown: Trx-His6 (pET-32M) or GST (pET-GST), N-terminal, cleaved
B6: OPTN(26–103) (domain or fragment, human, UniProt Q96CV9 26-103, looked up)
chain: HLAHPNLDTFTPEELLQQMKELLTENHQLKEAMKLNNQAMKGRFEELSAWTEKQKEERQFFEIQSKEAKERLMALSHE
notes: Forms a dimer in the crystal of the complex with TBK1 CTD; also called short OPTN fragment; not shown: Trx-His6 (pET-32M) or GST (pET-GST), N-terminal, cleaved
B7: OPTN(26–103) E50K (domain or fragment, human, UniProt Q96CV9 26-103, looked up)
chain: B6 chain with E25K
notes: as for B1

Data set [1] concerns the molecule itself. Nature of the data set: SEC-MALS; 100 μl at 20 μM on Superose 12 10/300 GL; 50 mM Tris-HCl, 100 mM NaCl, 1 mM DTT, 1 mM EDTA, pH 7.5.
Data set [2] addresses T1, GST-tagged OPTN(26–119) L54Q (human, UniProt Q96CV9 26-119, L54Q).
T1 construct: source: E. coli BL21 (DE3), purified (glutathione sepharose 4B, size-exclusion chromatography); not shown: GST, N-terminal, kept
Nature of the data set: pull-down; GST-tagged OPTN and Trx-His-tagged TBK1 mixed at 1:4, glutathione sepharose 4B beads; 50 mM Tris pH 7.5, 100 mM NaCl, 1 mM DTT, 1 mM EDTA; Coomassie or anti-His blot. Conditions: both partners purified.

For data set [3], the target named is T2, GST-tagged OPTN(26–119) M44Q (human, UniProt Q96CV9 26-119, M44Q).
T2 construct: source: E. coli BL21 (DE3), purified (glutathione sepharose 4B, size-exclusion chromatography); not shown: GST, N-terminal, kept
The description is as above. Particulars: both partners purified.

In data set [4] the target is T3, GST-tagged OPTN(26–119) L47Q (human, UniProt Q96CV9 26-119, L47Q).
T3 construct: source: E. coli BL21 (DE3), purified (glutathione sepharose 4B, size-exclusion chromatography); not shown: GST, N-terminal, kept
Described as above. Particulars: both partners purified.

Data set [5] deals with the molecule itself. Nature of the data set: crystal structure; NAP1 TBD/TBK1 CTD complex made as a fusion through a TEV site and cut with 3C and TEV; 1% tryptone, 0.05 M HEPES pH 7.0, 12% PEG 3350, 16 °C; 1.5 Å.
For another data set, the target named is T4, OPTN(1–119) (human, UniProt Q96CV9 1-119).
T4 construct: not shown: Trx-His6 (pET-32M) or GST (pET-GST), N-terminal, cleaved
Nature of the data set: ITC; 25 °C; 50 mM Tris pH 7.5, 100 mM NaCl, 1 mM EDTA, 1 mM DTT; 1 mM TBK1 fragment in the syringe, 0.1 mM OPTN or NAP1 fragment in the cell; one-site binding model. Particulars: both partners purified. Background: Isothermal titration calorimetry measures the heat released or taken up as one component is titrated into another.

Another data set concerns the target T5, OPTN(26–119) E50K (human, UniProt Q96CV9 26-119, E50K).
T5 construct: also called OPTN E50K mutant; not shown: Trx-His6 (pET-32M) or GST (pET-GST), N-terminal, cleaved
The description is as above. Conditions: both partners purified.

For another data set, the target named is T6, OPTN(26–119) (human, UniProt Q96CV9 26-119).
T6 construct: A Se-Met labelled form was used for the 2.5 Å crystal structure with TBK1 CTD; also called OPTN NTD; not shown: Trx-His6 (pET-32M) or GST (pET-GST), N-terminal, cleaved
The description is as above. Conditions: both partners purified.

The data set “TBK1 CTD(E696K)” has as its target B5. The data set is described as above. Particulars: both partners purified.
In data set [6] the target is B3. The description is as above. Particulars: both partners purified.
Data set [7] deals with the molecule itself. Briefly: crystal structure; OPTN(26–103) or OPTN(26–103) E50K with TBK1 CTD; 0.1 M MES pH 6.0, 14% PEG 4000, 16 °C; 2.05 Å and 2.5 Å.

T4 sequence (Q96CV9 1-119): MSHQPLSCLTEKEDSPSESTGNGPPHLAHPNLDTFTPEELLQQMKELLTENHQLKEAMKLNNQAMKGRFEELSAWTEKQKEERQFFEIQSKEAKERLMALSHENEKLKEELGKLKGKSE

One may read the stoichiometry N as the number of molecules, sites or subunits per partner or assembly. As to B1, the “stoichiometry N” value in data set [1] amounted to 4.
Consider B2, for which the binding result in [2], in data set [3] and in [4] was “binds” each time.
As usually defined, the Kd is the constant that tells how readily two partners part at equilibrium. For the molecule B3, the binding result in [5] is recorded as “binds”. The molecule further yielded a Kd with OPTN(1–119) of about 2.5 µM. Further, the “fold increase of binding affinity against the wild-type OPTN” value with OPTN(26–119) E50K was about 43 fold. Further, in the data set with OPTN(26–119), the Kd was about 2.5 µM and the “stoichiometry N” value is 1.15.
Turning to B4, the binding result with TBK1 CTD(E696K) is “binds”. In [6], this molecule yielded a Kd of about 0.72 µM.
As for B5, in the data set with OPTN(26–119), the “stoichiometry N” value was 0.58.
As for B6, the binding result in data set [7] is “binds”.
Still for that read-out and setting: for B7 the value was “binds”.

These data come from PMC5027247, “Structural insights into the interaction and disease mechanism of neurodegenerative disease-associated optineurin and TBK1 proteins” (Nature Communications, 2016).
